We go through one molecule from article PMC5458272 (2017).

This experiment addresses GST. The experiment can be described thus: SPR. (In general: In SPR one partner is held on a chip, and binding of the other changes the refractive index at the surface.)

B1: Recombinant His-tagged Aurora-A (enzyme)
chain: MDRSKENCISGPVKATAPVGGPKRVLVTQQFPCQNPLPVNSGQAQRVLCPSNSSQRIPLQAQKLVSSHKPVQNQKQKQLQATSVPHPVSRPLNNTQKSKQPLPSAPENNPEEELASKQKNEESKKRQWALEDFEIGRPLGKGKFGNVYLAREKQSKFILALKVLFKAQLEKAGVEHQLRREVEIQSHLRHPNILRLYGYFHDATRVYLILEYAPLGTVYRELQKLSKFDEQRTATYITELANALSYCHSKRVIHRDIKPENLLLGSAGELKIADFGWSVHAPSSRRTTLCGTLDYLPPEMIEGRMHDEKVDLWSLGVLCYEFLVGKPPFEANTYQETYKRISRVEFTFPDFVTEGARDLISRLLKHNPSQRPMLREVLEHPWITANSSKPSNCQNKESASKQS
With B1, the Kd is > 5 µM.

For orientation: Kd means the concentration at which binding is half-saturated. Higher therefore signals weaker binding.
